Source: US20170101451

What was measured:
SDF-1 17AA = tested on: T1, SDF-1 17AA
T1 sequence: KPVSLSYRCPCRFFESH

[1] = tested on: stromal cell derived factor-1 (SDF-1alpha), unmutated
stromal cell derived factor-1 (SDF-1alpha), unmutated, sequence (chain, as listed by the source, change not shown): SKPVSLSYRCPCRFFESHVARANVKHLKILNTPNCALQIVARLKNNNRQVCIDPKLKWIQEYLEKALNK

matrix metalloproteinase-2 (MMP-2), sequence (P08253 110-660): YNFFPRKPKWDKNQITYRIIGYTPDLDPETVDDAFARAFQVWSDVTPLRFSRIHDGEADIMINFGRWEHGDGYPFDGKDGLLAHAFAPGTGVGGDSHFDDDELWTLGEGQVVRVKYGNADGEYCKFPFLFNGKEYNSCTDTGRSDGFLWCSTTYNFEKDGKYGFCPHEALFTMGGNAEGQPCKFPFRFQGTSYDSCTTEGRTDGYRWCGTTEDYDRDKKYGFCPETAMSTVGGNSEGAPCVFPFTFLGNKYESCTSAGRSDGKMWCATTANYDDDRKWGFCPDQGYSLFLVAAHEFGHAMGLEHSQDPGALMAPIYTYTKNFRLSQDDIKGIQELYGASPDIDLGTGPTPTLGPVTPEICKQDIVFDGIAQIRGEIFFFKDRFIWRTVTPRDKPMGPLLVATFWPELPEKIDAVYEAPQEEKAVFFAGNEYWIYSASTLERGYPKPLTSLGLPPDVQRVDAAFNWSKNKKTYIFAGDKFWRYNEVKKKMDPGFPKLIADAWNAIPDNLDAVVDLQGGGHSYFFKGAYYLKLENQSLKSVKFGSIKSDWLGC
SDF-1(L5E), sequence (chain, as listed by the source): as the sequence (chain, as listed by the source, change not shown) above, with L6E counted along it
SDF-1(L5P), sequence (chain, as listed by the source): as the sequence (chain, as listed by the source, change not shown) above, with L6P counted along it
SDF-1(S4V), sequence (chain, as listed by the source): as the sequence (chain, as listed by the source, change not shown) above, with S5V counted along it
SDF-1(L5W), sequence (chain, as listed by the source): as the sequence (chain, as listed by the source, change not shown) above, with L6W counted along it

In the case of matrix metalloproteinase-2 (MMP-2), the “cleavage by MMP-2: SDS-PAGE, 2 nmole peptide incubated with MMP-2 for 1 h at RT” value (SDF-1 17AA) is reported as “showing cleavage of SDF-1 17AA”, the “cleavage by MMP-2: SDS-PAGE positional shift after one hour incubation” value (SDF-1(L5E)) is reported as “unlike SDF-1, the mutants did not undergo a positional shift indicative of cleavage” and the “cleavage by MMP-2: SDS-PAGE positional shift after one hour incubation” value (SDF-1(L5P)) is reported as “unlike SDF-1, the mutants did not undergo a positional shift indicative of cleavage”. The “cleavage by MMP-2: SDS-PAGE positional shift after one hour incubation” value (SDF-1(L5W)) was “unlike SDF-1, the mutants did not undergo a positional shift indicative of cleavage”, the “cleavage by MMP-2: SDS-PAGE positional shift after one hour incubation” value (SDF-1(S4V)) was “unlike SDF-1, the mutants did not undergo a positional shift indicative of cleavage” and the “cleavage by MMP-2: SDS-PAGE positional shift after one hour incubation” value [1] was “unlike SDF-1, the mutants did not undergo a positional shift indicative of cleavage”.
